{"source": "paper PMC11247618", "about": "(Immunity, 2024)", "binders": {"B1": {"name": "hcab55 Fab (Fab, V domains shown)", "VH": "QVQLVQSGAEIKKPGASVKVSCKASGYTFISNYFHWVRQAPGQGLEWMGIINPSSGSTTYGQKFQGRVTLTSDTSASIVYLELSRLRSEDTAVYYCVSPRIAHCRGGRCYETLDWGQGTLVTVSS", "VL": "EIVLTQSPVSLSLSPGERATLSCRASQSVSSNYLAWYQLKPGRAPRLLIYGASSRAPGIPDRFSGSGSGTDFTLTISRLEPEDFAVYYCQQYGISSWTFGQGTKVEIK"}, "B2": {"name": "hcab64 Fab (Fab, V domains shown)", "VH": "QVQLVQSGAEIQKPGASVKVSCRASGYTYISTSFHWVRQAPGQGLEWMGVIKTDDGSTSDTQKFQGRLRMTWDTSTSTVYMELSSLRSDDTAVYYCVSPRLGHCRRGRCYETLDWGQGSLVTVSS", "VL": "EIVLTQSPGTLSLSPGERATLSCRASQSVSSSYLAWYQQKPGQAPRLLVYGASTRATGIPDRFSGSGSGTDFTLTISRLEPEDFAVYYCHQYSSSFWTFGQGTKVEIK"}, "B3": {"name": "hcab17 Fab (Fab, V domains shown)", "VH": "QVQLNQWGAGLLKPSETLSLTCAVYGDAFSGNYWSWIRQPPGKGLQWIGEINHSGNTNYDPSLESRVSISLDTSKNQLSLKLNSVTAADTALYYCARGQRNCSGGNCYSGLWAWGQGTLVTVSS", "VL": "AIHMTQSPFSLSASVGDRVTITCRASQGIRNDLAWYQHKPGTAPKVLIYAASSLQDGVSSRFSGSGSGTLFTLTISSLQPEDFATYYCLQGYNYPRTFGQGTKVEMK"}, "B4": {"name": "hcab40 Fab (Fab, V domains shown)", "VH": "QVQLQQWGAGLLKPSESLSLTCVVYGGSFSGYYWSWIRQPPGKGLEWIGEINPTGSTNYNPSLNSRVTISVDRSKNHLSLKLSSVTAADTAVYFCARFLPPDYDLLTDYFDPPGAFDIWGQGTMVTVSS", "VL": "DIHMTQSPFSLSASVGDRVTITCRASQSISGWLAWYQQKVGNAPKLLIYKASSLESGVPSRFSGSGSGTEFTLSISSLQPDDFATYYCQQYNSYPFTFGPGTKVDMK"}}, "data": [{"biological_target": "1b09 HCV E2 ectodomain (E2ecto) (Hepatitis C virus genotype 1b, strain …, strain)", "assay": "crystal structure", "values": [{"binder": "B1", "binding result": "binds"}, {"binder": "B2", "binding result": "binds"}, {"binder": "B3", "binding result": "binds"}, {"binder": "B4", "binding result": "binds"}]}]}
